Results from the supplement of paper PMC10126150.
± gives the standard deviation of the averaged measurements.

Test system: ATP
Assay: switch fluorescence ratio, 500 uM ATP over buffer (Cy3 cluster intensity, sum of 5 cycles each) (fold (ratio)); higher = stronger signal-on switching upon ATP binding; sequences stand for … in TCGTCGGCAGCGTCAGATGTGTATAAGAGACAGTTTTTTTTTTTTTTTTTTTTTTTTT…TC
Conditions: aptamer strand: ATP DNA aptamer (quencher-CACCTGGGGGAGTATTGCGGAGGAAGG + anchor), 100 nM annealed; ATP concentration: 500 uM
How it was run: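 The quencher-labelled ATP aptamer, at 100 nM, was annealed to Cy3-labelled switching-strand clusters on a modified Illumina MiSeq flow-cell. The clusters were imaged in selection buffer, then after 15 min with 500 uM ATP at 22 °C, and this buffer/ATP cycle ran five times with NaOH stripping and re-annealing between runs. Per-cluster fluorescence ratios, summed target-cycle over summed buffer-cycle Cy3 intensity, were averaged per switch-domain sequence. Clusters outside 100-1000 RFU were excluded.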
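Note: ATP exposure 15 min at 22 °C before imaging.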

| Sequence | switch fluorescence ratio |
| --- | --- |
| CGTGGAACGA | 1.01 ± 0.058 |
| CGTGGGAATT | 0.977 ± 0.019 |
| CGTGGGAGAG | 0.983 ± 0.021 |
| CGTGGGAGGC | 1.04 ± 0.077 |
| CGTGGGGAGG | 1.05 ± 0.017 |
| CGTGGGGCAC | 1.01 ± 0.024 |
| CGTGGGGGT | 0.996 ± 0.035 |
| CGTGGGGTTT | 0.989 ± 0.022 |
| CGTGGGTGGT | 1.0181 ± 0.00048 |
| CGTGGTAAGG | 0.989 ± 0.026 |
| CGTGGTGGG | 0.968 ± 0.029 |
| CGTGGTGGGA | 0.9737 ± 0.0088 |
| CGTGGTTGTC | 0.9871 ± 0.0066 |
| CGTGTAAGGG | 0.974 ± 0.04 |
| CGTGTAATGT | 0.985 ± 0.048 |
| CGTGTAATTT | 0.993 ± 0.016 |
| CGTGTACTTA | 1.03 ± 0.01 |
| CGTGTAGGAG | 0.99262 ± 0.00056 |
| CGTGTAGGTT | 1.02 ± 0.021 |
| CGTGTAGTTT | 1.01 ± 0.036 |
| CGTGTATATA | 1.018 ± 0.0041 |
| CGTGTATGG | 1.016 ± 0.0031 |
| CGTGTATGTG | 0.969 ± 0.043 |

| Sequence | switch fluorescence ratio |
| --- | --- |
| CGTGTATTCT | 0.968 ± 0.034 |
| CGTGTCTTGA | 1.027 ± 0.0037 |
| CGTGTGCCGA | 1.01 ± 0.057 |
| CGTGTGGGGT | 1.01 ± 0.027 |
| CGTGTGGTGG | 0.944 ± 0.032 |
| CGTGTGGTGT | 1.03 ± 0.04 |
| CGTGTTCTGG | 0.994 ± 0.031 |
| CGTGTTGGTA | 0.987 ± 0.013 |
| CGTGTTGTAC | 1.13 ± 0.024 |
| CGTGTTTGCC | 1 ± 0.02 |
| CGTGTTTTAG | 1 ± 0.033 |
| CGTTAATCTT | 0.995 ± 0.049 |
| CGTTAATTAC | 1.38 ± 0.036 |
| CGTTAGAATC | 1.014 ± 0.0082 |
| CGTTAGATGG | 1.01 ± 0.011 |
| CGTTAGTGCG | 1 ± 0.025 |
| CGTTCAACTC | 1.04 ± 0.016 |
| CGTTCTGTTT | 1 ± 0.029 |
| CGTTGAGGAA | 0.9853 ± 0.0038 |
| CGTTGCCGTT | 1.06 ± 0.1 |
| CGTTGCGCTG | 1.01 ± 0.0069 |
| CGTTGGCACG | 0.997 ± 0.04 |
| CGTTGGGTCC | 0.987 ± 0.029 |

| Sequence | switch fluorescence ratio |
| --- | --- |
| CGTTGGGTTT | 1.03 ± 0.054 |
| CGTTGGTCAG | 1.02 ± 0.032 |
| CGTTGGTGGT | 0.99 ± 0.031 |
| CGTTGTACTT | 1.01 ± 0.052 |
| CGTTGTAGGA | 0.999 ± 0.016 |
| CGTTGTAGGG | 0.989 ± 0.01 |
| CGTTGTCATC | 1.01 ± 0.06 |
| CGTTGTCATT | 0.972 ± 0.036 |
| CGTTGTCTAG | 0.9713 ± 0.005 |
| CGTTGTTAGC | 0.992 ± 0.022 |
| CGTTGTTGTT | 0.989 ± 0.045 |
| CGTTTAAGTA | 0.973 ± 0.019 |
| CGTTTACTTA | 1.02 ± 0.02 |
| CGTTTAGGTT | 1 ± 0.017 |
| CGTTTCAGCG | 0.952 ± 0.051 |
| CGTTTCGTGC | 0.9919 ± 0.003 |
| CGTTTGGACG | 0.989 ± 0.079 |
| CGTTTGGGGG | 0.987 ± 0.021 |
| CGTTTGGTCT | 1 ± 0.051 |
| CGTTTGGTGG | 1.01 ± 0.032 |
| CGTTTGTGAG | 1 ± 0.0092 |
| CGTTTGTGGG | 0.984 ± 0.034 |
| CGTTTTAGAG | 1.01 ± 0.016 |

| Sequence | switch fluorescence ratio |
| --- | --- |
| CGTTTTCCGA | 1.01 ± 0.032 |
| CGTTTTCGGA | 0.982 ± 0.032 |
| CGTTTTGATA | 1.01 ± 0.012 |
| CGTTTTGATT | 0.997 ± 0.013 |
| CGTTTTGGGC | 1.04 ± 0.033 |
| CGTTTTGGGG | 0.999 ± 0.032 |
| CGTTTTTCCG | 1.08 ± 0.032 |
| CGTTTTTGGC | 0.992 ± 0.074 |
| CTAAAAGGGA | 0.95 ± 0.033 |
| CTAAAAGTGT | 0.989 ± 0.034 |
| CTAAACAGAA | 0.9996 ± 0.0027 |
| CTAAACGGTG | 1.03 ± 0.012 |
| CTAAAGACTC | 1.19 ± 0.046 |
| CTAAAGGGGA | 1.08 ± 0.12 |
| CTAAAGGGGG | 0.998 ± 0.029 |
| CTAAATAGGG | 1.01 ± 0.049 |
| CTAAATCGGT | 0.987 ± 0.061 |
| CTAAATGGGA | 1.01 ± 0.029 |
| CTAAATTAGT | 0.995 ± 0.042 |
| CTAAATTGCC | 0.9991 ± 0.0056 |
| CTAACATTTT | 1.01 ± 0.018 |
| CTAACCAGCC | 1.6 ± 0.13 |
| CTAACCGGTA | 1.006 ± 0.0063 |

| Sequence | switch fluorescence ratio |
| --- | --- |
| CTAACTGGTG | 1.2 ± 0.055 |
| CTAAGAGGAC | 0.9921 ± 0.0033 |
| CTAAGAGGCG | 0.988 ± 0.024 |
| CTAAGCGGGA | 1.05 ± 0.016 |
| CTAAGGATGC | 1.03 ± 0.021 |
| CTAAGGCGGG | 1.013 ± 0.0072 |
| CTAAGGGGAT | 1.09 ± 0.15 |
| CTAAGTTCCG | 1.015 ± 0.01 |
| CTAATATTAT | 1.01 ± 0.027 |
| CTAATCGGTT | 0.97 ± 0.029 |
| CTAATTAAGT | 0.973 ± 0.028 |
| CTAATTATGG | 1.04 ± 0.014 |
| CTAATTGAGT | 1.01 ± 0.014 |
| CTAATTTTTT | 1.01 ± 0.025 |
| CTACCTCCGA | 3.16 ± 0.29 |
| CTACTATAGG | 0.9889 ± 0.0064 |
| CTAGAAAGC | 1.02 ± 0.02 |
| CTAGCAACGC | 1.08 ± 0.028 |
| CTAGCCAATT | 1.02 ± 0.016 |
| CTAGCCCAGC | 1.02 ± 0.026 |
| CTAGCCGGGA | 1.017 ± 0.009 |
| CTAGCCTCTT | 0.995 ± 0.027 |
| CTAGCCTGCT | 0.994 ± 0.038 |

| Sequence | switch fluorescence ratio |
| --- | --- |
| CTAGGACAGC | 0.994 ± 0.012 |
| CTAGGCAGTT | 1.01 ± 0.012 |
| CTAGGCTGTA | 1 ± 0.021 |
| CTAGGGAGGT | 0.9701 ± 0.002 |
| CTAGGGCTTC | 0.979 ± 0.02 |
| CTAGGGGCGT | 0.979 ± 0.019 |
| CTAGGGGGGC | 1 ± 0.093 |
| CTAGGTGGAC | 1.01 ± 0.012 |
| CTAGTAGATC | 1.04 ± 0.014 |
| CTAGTAGTGT | 1.01 ± 0.022 |
| CTAGTCGCCG | 1.003 ± 0.0097 |
| CTAGTCTAAT | 1.01 ± 0.039 |
| CTAGTGCTCG | 0.971 ± 0.022 |
| CTAGTTAAGC | 0.9892 ± 0.0035 |
| CTAGTTCTTA | 1.05 ± 0.065 |
| CTAGTTGGTT | 0.971 ± 0.028 |
| CTATAAAAGT | 0.9983 ± 0.0076 |
| CTATAAGGG | 0.985 ± 0.031 |
| CTATAGGAAA | 1.03 ± 0.026 |
| CTATAGGTAA | 0.996 ± 0.019 |
| CTATAGTAGG | 0.9849 ± 0.0029 |
| CTATAGTCAA | 1.38 ± 0.026 |
| CTATATGAAG | 0.9802 ± 0.0067 |

| Sequence | switch fluorescence ratio |
| --- | --- |
| CTATCCTCTT | 0.972 ± 0.01 |
| CTATCGGGGT | 0.993 ± 0.015 |
| CTATCGGTGA | 0.9767 ± 0.0019 |
| CTATGAATTT | 0.995 ± 0.011 |
| CTATGACAGC | 1.01 ± 0.016 |
| CTATGATCTG | 0.989 ± 0.065 |
| CTATGGCCGG | 0.969 ± 0.024 |
| CTATGGCGCA | 1.03 ± 0.067 |
| CTATGGGGGG | 0.993 ± 0.035 |
| CTATGGTATC | 1.02 ± 0.015 |
| CTATGTGGTG | 1.02 ± 0.054 |
| CTATTAATAC | 1.63 ± 0.096 |
| CTATTAGGGA | 0.9728 ± 0.0092 |
| CTATTCAGGG | 1.02 ± 0.066 |
| CTATTCGTGG | 0.973 ± 0.029 |
| CTATTGGCAA | 1.06 ± 0.022 |
| CTATTGGGCT | 1.01 ± 0.012 |
| CTATTTAGCC | 1.02 ± 0.063 |
| CTATTTCTGA | 0.931 ± 0.027 |
